Assay results published in publication PMC10665551.

Legend:
[1] = molecular target: Pichia pastoris recombinant Oo-ASP-1 (Ostertagia ostertagi); assay: reducing and non-reducing SDS-PAGE + LC-MS of tryptic peptides; denaturing SDS-PAGE with and without β-mercaptoethanol; 1D and 2D LC-MS of reduced (DTT/IAA) and non-reduced tryptic digests to map intra- and intermolecular disulphide bridges; disulphide-linked dimer
[2] = molecular target: native Oo-ASP-1 (activation-associated secreted protein 1 of Ostertagia ostertagi) (Ostertagia ostertagi); assay: as above

Row | Substance | stoichiometry N [1] | stoichiometry N [2]
1 | Pichia pastoris recombinant Oo-ASP-1 (natural protein) | 2 | 
2 | native Oo-ASP-1 (activation-associated secreted protein 1 of Ostertagia ostertagi) (natural protein) |  | 2
